Experimental data reported in the Human Domainome abundance scans (Beltran et al. 2025).
± gives the uncertainty stated by the source.

B1: Neutrophil cytosol factor 2, residues 456 to 514; numbered along this chain, P19878 (parent)
chain: LKKGSQVEALFSYEATQPEDLEFQEGDIILVLSKVNEEWLEGECKGKVGIFPKVFVEDC

Variants of: B1
Assay: abundance fitness (aPCA) (normalised: wild type 0, dead -1); higher = more abundant; growth selection in yeast, the domain comes from the species named
Details: Homo sapiens

Variant | abundance fitness
LLKGSQVEALFSYEATQPEDLEFQEGDIILVLSKVNEEWLEGECKGKVGIFPKVFVEDC | -0.46 ± 0.2
LKKGSQVEALFSYEATYPEDLEFQEGDIILVLSKVNEEWLEGECKGKVGIFPKVFVEDC | -0.09 ± 0.12
LKKGSQVEALFSYEATQPEDLEFQEGDIILVLSKVNEEWLEGECKGKVGIFPKVFVHDC | -0.084 ± 0.13
LKKGSQPEALFSYEATQPEDLEFQEGDIILVLSKVNEEWLEGECKGKVGIFPKVFVEDC | -0.506 ± 0.27
LKKGSQVEALFSYEATQPEDLEFQEGDIILVLSKVNEEWLEGECVGKVGIFPKVFVEDC | -0.734 ± 0.17
LKKGSQVEALFSYEATKPEDLEFQEGDIILVLSKVNEEWLEGECKGKVGIFPKVFVEDC | 0.796 ± 0.18
LKKGSQVEALFTYEATQPEDLEFQEGDIILVLSKVNEEWLEGECKGKVGIFPKVFVEDC | -0.119 ± 0.11
LKKGSQVEALFSYEATQPEDLEFQEGDNILVLSKVNEEWLEGECKGKVGIFPKVFVEDC | 0.043 ± 0.11
LKKGSQVEALFSYEATQPEDLEFQEGDIILVLSKVNEEWLEGECKHKVGIFPKVFVEDC | -0.84 ± 0.34
LKKGSQVEALFSGEATQPEDLEFQEGDIILVLSKVNEEWLEGECKGKVGIFPKVFVEDC | -0.165 ± 0.11
LKKGSQVEALFSYEATQPEDIEFQEGDIILVLSKVNEEWLEGECKGKVGIFPKVFVEDC | -0.184 ± 0.11
LKKGSQVEALFSYEATQPEDLEFQEGDIILVLSKVNEEWLEGECKGKVGIRPKVFVEDC | -0.716 ± 0.17
LKKGSQVEALFSYERTQPEDLEFQEGDIILVLSKVNEEWLEGECKGKVGIFPKVFVEDC | -0.417 ± 0.14
LKKGSQVEALFSYEATQPEDLEFQEGDIILVLSKVNEEWLEGECKGKVGIFPRVFVEDC | 0.195 ± 0.1
LKKGSQVEALFSYEATQPEDLEFQEGEIILVLSKVNEEWLEGECKGKVGIFPKVFVEDC | -0.933 ± 0.44
LKKGMQVEALFSYEATQPEDLEFQEGDIILVLSKVNEEWLEGECKGKVGIFPKVFVEDC | 0.216 ± 0.18
LKKGSQVEALFSYEATQPEDLEFQEGDIILVLSKVNEEWLEGEKKGKVGIFPKVFVEDC | -0.574 ± 0.4

Variant | abundance fitness
LKKGSQVEALFSYEATQPEDLEFQEGDIILVLSKVNEEWLEGECKGKVGIFPKVFVERC | 0.155 ± 0.13
LKKGSQVEALFSYEATQPEDLEFQEGDIILVLNKVNEEWLEGECKGKVGIFPKVFVEDC | 0.147 ± 0.089
LKKGSQVEALFSYEATQPEDLEFQEGDIILCLSKVNEEWLEGECKGKVGIFPKVFVEDC | -0.418 ± 0.14
LKKGSQVEALFSYEATQPEDLEFQEGDIILVLSKVNTEWLEGECKGKVGIFPKVFVEDC | -0.171 ± 0.14
LKKGSQVEALFSYEATQPEDLEFQEGDIILVLSKVNEEWLEGECNGKVGIFPKVFVEDC | 0.203 ± 0.096
LKKGSQVEALFSYEATQPEDLEFWEGDIILVLSKVNEEWLEGECKGKVGIFPKVFVEDC | -0.14 ± 0.35
LKKGSQVEALFSYEATQPEDLEAQEGDIILVLSKVNEEWLEGECKGKVGIFPKVFVEDC | -0.333 ± 0.2
LKKGSQVEALFSYEATQPEDLEFQEGDIILVLSKENEEWLEGECKGKVGIFPKVFVEDC | -1.04 ± 0.48
LKKGSQVEALFSYEATQPEDLEFQEGDIILVLSKVNEEWLEGECKGKVGIYPKVFVEDC | -0.359 ± 0.11
LKKGSQVEALFSYEATQPEDLEFQEGDISLVLSKVNEEWLEGECKGKVGIFPKVFVEDC | -0.374 ± 0.11
LKKGSQVEALFSYEATQPEDLEFQEGDIILVLSKQNEEWLEGECKGKVGIFPKVFVEDC | -0.302 ± 0.32
LKKGSQLEALFSYEATQPEDLEFQEGDIILVLSKVNEEWLEGECKGKVGIFPKVFVEDC | -0.633 ± 0.24
LKKGSQVEALFSYSATQPEDLEFQEGDIILVLSKVNEEWLEGECKGKVGIFPKVFVEDC | -0.123 ± 0.083
LKKGSQVEALFSYEATQPEDLEFQEGDIILVLSKVNEEWLEGECKGKVGIFPKVFIEDC | -0.81 ± 0.22
LKKGSQVEALFSYEATQPEDLEFQEGDIILVLCKVNEEWLEGECKGKVGIFPKVFVEDC | -0.474 ± 0.13
LKKGSQVEALFSYEATQPEDLEFQEGDIILVLSKVNEYWLEGECKGKVGIFPKVFVEDC | -0.266 ± 0.11
LKKGSQVEALFSYEATQPEDLEFQEEDIILVLSKVNEEWLEGECKGKVGIFPKVFVEDC | -0.473 ± 0.36
